Laboratory results reported in patent US20170081417A1 (Kyowa Kirin, published 2017).
Substitutions are numbered along the chain they refer to. No end group written: not given here.

Experiments:
Experiment in all cases: ELISA on coated KLH-conjugated peptide
[1] = target: T1, human OX40 peptide 112A (human, also: conjugated to KLH via maleimide linker)
T1 peptide: RPAGPGFYNDVVSSKPC
Procedure: (§1) Antibody titers, specificity, and production by hybridomas were determined by ELISA. In brief, 96 well flat bottom plates were coated with 50 μl of hOX40:hFc at 5 μg/ml in carbonate buffer (pH 9.4) overnight at 4° C. or at 37° C. for one hour. After washing twice with PBS/0.1% Tween 20, plates were blocked with PBS/1% BSA/0.1% Tween20 at 37° C. for one hour. The serum, supernatant, or purified antibody was diluted in blocking buffer, added to the wells, and the plates were incubated for one hour at 37° C. The plates were washed four times with PBS/0.1% Tween 20 and the peroxidase conjugated sheep anti-human kappa detection antibody (The Binding Site, Birmigham, UK) was added at a dilution of 1:2000. Following one hour incubation at 37° C., the plates were washed and the TMB (Sigma) substrate was added and incubated at room temperature for ten to thirty minutes. The reaction was stopped with H₂SO₄ (LabChem) and the optical density was measured at 450 nm by a microplate reader.
(§2) The peptides were generated by A & A Lab, LLC and conjugated to keyhole limpet hemocyanin (“KLH”) with a maleimide linker following the manufacturer's instructions (Pierce). The peptides were coated at 10 μg/ml in carbonate buffer to 96 well Maxisorp ELISA plates (Nunc) at 4° C. overnight. The plate was washed with PBS/0.1% Tween 20 and then blocked with Casein buffer (Pierce) for three hours at room temperature. Candidate antibodies were added at 10 μg/ml diluted in 10% Casein in PBS/0.1% Tween 20. The remainder of the ELISA was performed as described for the OX40 specific antibody detection ELISA.

[2] = target: T2, human OX40 peptide 112B (human, also: conjugated to KLH via maleimide linker)
T2 peptide: RAGTQPLDSYKPGVDC
Procedure: as §1, §2

[3] = target: T3, human OX40 peptide 112C (human, also: conjugated to KLH via maleimide linker)
T3 peptide: LAGKHTLQPASNSSDAIC
Procedure: as §1, §2

Measured: binding result

B1: 112Y55 human anti-human OX40 monoclonal antibody (hybridoma ATCC No. PTA-7220) (antibody, V domains shown)
VH: QITLKESGPTLVKPTQTLTLSCTFSGFSLSTSGVGVGWIRQPPGKALEWLALIHWDDAERYSPSLKSRLTITKDTSKNQVVLTMTNMDLVDTATYYCAHTRGAFDIWGQGTMVTVSS
VL: EIVLTQSPGTLSLSPGERAILSCRASQSVSSSFLAWYQQKPGQAPRLLIYGAFSRATGIPDRFSGSGSGTDFTLTISRLEPEDFAVYYCQQYDSSRTFGQGTKVEIK
no binding (tested: 10 µg/ml): all assays above

B2: 112Y131 human anti-human OX40 monoclonal antibody (hybridoma ATCC No. PTA-7218) (antibody, V domains shown)
VH: B1 VH with S21T, H54Y, A58H, E59S, R60P, L89P, H99R
VL: EIVLTQSPATLSLSPGERATLSCRASQGVSSYLAWYQQKPGQAPRLLIYDASNRATGIPARFSGSGPGTDFTLTISSLEPEDFAVYYCQQRSNWHPTFGQGTKVEIK
no binding (tested: 10 µg/ml): all assays above
